Each block holds one molecule with its values, some of them ahead of it. Where a SMILES comes first, the peptide text is derived from it. Where no end group is shown, it is not given here. [ ]: non-standard residue; d: D form. ξ: configuration not given here. ξαMeBip(2'-Et,4'-OMe) = CCc1cc(OC)ccc1-c1ccc(CC(C)(N)C(=O)O)cc1; ξBip(2'-Et-4'-OMe) = CCc1cc(OC)ccc1-c1ccc(CC(N)C(=O)O)cc1; αMePhe(2,6-F2) = C[C@](N)(Cc1c(F)cccc1F)C(=O)O; ξαMePhe(2,6-F2) = CC(N)(Cc1c(F)cccc1F)C(=O)O; αMePhe(2-F) = C[C@](N)(Cc1ccccc1F)C(=O)O; αMeBip(OMe) = alpha-methylated Bip(OMe); ξαMe(hhPhe) = CC(N)(CCCc1ccccc1)C(=O)O; ξαMePhe(2-F) = CC(N)(Cc1ccccc1F)C(=O)O; hhPhe = N[C@@H](CCCc1ccccc1)C(=O)O; ξhhPhe = NC(CCCc1ccccc1)C(=O)O; ξαMeD = CC(N)(CC(=O)O)C(=O)O; αMeP = C[C@@]1(C(=O)O)CCCN1; Ac5c = NC1(C(=O)O)CCCC1; Aib = CC(C)(N)C(=O)O
What was measured:
[1] = tested on: RIN5F (Rat Insulinoma) cells; assay: In vitro glucose-dependent insulin secretion (RIN5F cell assay); format: cell-based; conditions: 16.7-mM glucose load, n = 3, mean ± S.D.
Description: RIN5F (Rat Insulinoma) cells were cultured in RPMI 1640 medium supplemented with sodium pyruvate (1 mM) HEPES and Glucose (4.5 g/L) in a humidified incubator (5% CO2), at 37° C. After trypsinization, RIN5F cells were seeded at a concentration of 0.2×10^6 cells per well, in 12 well plates. The cells were grown overnight to 80% confluence and insulin secretion experiments were performed as follows (Montrose-Rafizadeh C., et al., Mol. Cell. Endo. 1997, 130, 109.; Wang, X., et al., Endocrinology 2001, 5, 1820).
The cells were washed once with PBS solution followed by 40 min. incubation in fresh Krebs-Ringer Balanced Buffer containing NaCl (115 mmol/L), KCl (4.7 mmol/L), CaCl2 (1.28 mmol/L), MgSO4.7H2O (1.2 mmol/L), KH2PO4 (1.2 mmol/L), NaHCO3 (10 mmol/L) and HEPES (25 mmol/L), containing Glucose (1.1 mM) and B.S.A (0.5%), pH 7.4. The buffer was replaced after 40 min. and the cells were incubated (37° C.) with the test peptidomimetics, at different concentration, for 30 min., both in the presence (16.7 mM) and absence (0 mM) of glucose load. The supernatant was collected and the insulin amount was measured by ultra sensitive Rat insulin ELISA kit (Crystal Chem, IL). The protein was estimated in the supernatant using Bicinchoninic Acid kit, according to the manufacturer's protocol (Sigma Aldrich, MO). The total insulin content obtained in Pico-gram (pg) was divided with the total protein (μg) in order to normalize for differences in cell density between wells.

[2] = molecular target: human glucagon receptor (human, UniProt P47871 26-477); assay: cell-based or functional assay
Chain of human glucagon receptor (P47871 26-477): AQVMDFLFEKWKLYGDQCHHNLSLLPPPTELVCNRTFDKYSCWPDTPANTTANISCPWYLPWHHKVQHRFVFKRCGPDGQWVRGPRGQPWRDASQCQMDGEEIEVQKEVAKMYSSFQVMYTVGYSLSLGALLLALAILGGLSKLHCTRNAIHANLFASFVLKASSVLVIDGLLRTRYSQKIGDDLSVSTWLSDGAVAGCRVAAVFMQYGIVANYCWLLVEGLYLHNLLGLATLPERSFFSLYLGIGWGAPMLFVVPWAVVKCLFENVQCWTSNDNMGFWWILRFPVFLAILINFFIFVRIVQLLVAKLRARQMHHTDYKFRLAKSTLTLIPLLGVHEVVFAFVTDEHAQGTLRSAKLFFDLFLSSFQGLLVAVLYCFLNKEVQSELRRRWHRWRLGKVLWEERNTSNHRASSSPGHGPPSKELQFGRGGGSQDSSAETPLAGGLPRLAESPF

Molecule: CCc1cc(OC)ccc1-c1ccc(CC(C)(NC(=O)C(C)(CC(=O)O)NC(=O)[C@H](CO)NC(=O)[C@@H](NC(=O)C(C)(Cc2ccccc2F)NC(=O)[C@@H](NC(=O)CNC(=O)[C@H](CCC(N)=O)NC(=O)[C@H](C)NC(=O)[C@H](Cc2c[nH]cn2)NC(=O)[C@@H](N)C(C)C)[C@@H](C)O)[C@@H](C)O)C(=O)NC(CCCc2ccccc2)C(N)=O)cc1 (some centres unmarked) [compound 66] (H-VHAQGT[ξαMePhe(2-F)]TS[ξαMeD][ξαMeBip(2'-Et,4'-OMe)][ξhhPhe]-NH2)
Insulin secretion ([1]; 0.1 nM test compd.): 16.5 ± 0.12 pg/µg/h
Insulin secretion ([1]; 1 nM test compd.): 22.7 ± 0.17 pg/µg/h
Insulin secretion ([1]; 10 nM test compd.): 36.5 ± 0.05 pg/µg/h

Molecule: CCc1cc(OC)ccc1-c1ccc(CC(C)(NC(=O)C(C)(CC(=O)O)NC(=O)[C@H](CO)NC(=O)[C@@H](NC(=O)C(C)(Cc2ccccc2F)NC(=O)[C@@H](NC(=O)CNC(=O)[C@H](CCC(=O)O)NC(=O)C(C)(C)NC(=O)[C@H](Cc2c[nH]cn2)NC(=O)[C@@H](N)C(C)C)[C@@H](C)O)[C@@H](C)O)C(=O)NC(CCCc2ccccc2)C(N)=O)cc1 (some centres unmarked) [compound 71] (H-VH[Aib]EGT[ξαMePhe(2-F)]TS[ξαMeD][ξαMeBip(2'-Et,4'-OMe)][ξhhPhe]-NH2)
Insulin secretion ([1]; 0.1 nM test compd.): 15.6 ± 0.30 pg/µg/h
Insulin secretion ([1]; 1 nM test compd.): 21.8 ± 0.11 pg/µg/h
Insulin secretion ([1]; 10 nM test compd.): 35.6 ± 0.20 pg/µg/h

Molecule: CCc1cc(OC)ccc1-c1ccc(CC(C)(NC(=O)C(C)(CC(=O)O)NC(=O)[C@H](CO)NC(=O)[C@@H](NC(=O)C(C)(Cc2c(F)cccc2F)NC(=O)[C@@H](NC(=O)CNC(=O)[C@H](CCC(=O)O)NC(=O)[C@H](C)NC(=O)[C@H](Cc2c[nH]cn2)NC(=O)[C@@H](N)C(C)C)[C@@H](C)O)[C@@H](C)O)C(=O)NC(CCCc2ccccc2)C(N)=O)cc1 (some centres unmarked) [compound 78] (H-VHAEGT[ξαMePhe(2,6-F2)]TS[ξαMeD][ξαMeBip(2'-Et,4'-OMe)][ξhhPhe]-NH2)
Insulin secretion ([1]; 0.1 nM test compd.): 16.3 ± 0.15 pg/µg/h
Insulin secretion ([1]; 1 nM test compd.): 22.4 ± 0.21 pg/µg/h
Insulin secretion ([1]; 10 nM test compd.): 36.2 ± 0.11 pg/µg/h

Molecule: CCc1cc(OC)ccc1-c1ccc(CC(NC(=O)[C@H](CC(=O)O)NC(=O)[C@H](CO)NC(=O)[C@@H](NC(=O)[C@H](Cc2ccccc2)NC(=O)[C@@H](NC(=O)CNC(=O)[C@H](CCC(N)=O)NC(=O)C2(NC(=O)[C@H](Cc3c[nH]cn3)NC(=O)[C@@H](N)C(C)C)CCCC2)[C@@H](C)O)[C@@H](C)O)C(=O)NC(C)(CCCc2ccccc2)C(N)=O)cc1 (some centres unmarked) [compound 85] (H-VH[Ac5c]QGTFTSD[ξBip(2'-Et-4'-OMe)][ξαMe(hhPhe)]-NH2)
Insulin secretion ([1]; 0.1 nM test compd.): 12.1 ± 0.52 pg/µg/h
Insulin secretion ([1]; 1 nM test compd.): 14.1 ± 0.16 pg/µg/h
Insulin secretion ([1]; 10 nM test compd.): 28.0 ± 0.36 pg/µg/h

Second part, the molecule after the results:

cAMP production (pmol/ml/µg prt) with saturated glucagon peptide, at 1 nM [2]: 5 pmol/ml/µg prt
cAMP production (pmol/ml/µg prt) with saturated glucagon peptide, at 10 nM [2]: 2 pmol/ml/µg prt
cAMP production (pmol/ml/µg prt) with saturated glucagon peptide, at 100 nM [2]: 0 pmol/ml/µg prt
cAMP production (pmol/ml/µg prt) with saturated glucagon peptide, at 1 µM [2]: 0 pmol/ml/µg prt
cAMP production (pmol/ml/µg prt) with saturated glucagon peptide, at 10 µM [2]: 0 pmol/ml/µg prt
B1: Seq. ID. No. 217 (peptide)
peptide: VVHSEGT[αMePhe(2-F)]TSD[αMeBip(OMe)][hhPhe]-NH2

cAMP production (pmol/ml/µg prt) with saturated glucagon peptide, at 1 nM [2]: 0 pmol/ml/µg prt
cAMP production (pmol/ml/µg prt) with saturated glucagon peptide, at 10 nM [2]: 0 pmol/ml/µg prt
cAMP production (pmol/ml/µg prt) with saturated glucagon peptide, at 100 nM [2]: 0 pmol/ml/µg prt
cAMP production (pmol/ml/µg prt) with saturated glucagon peptide, at 1 µM [2]: 0 pmol/ml/µg prt
cAMP production (pmol/ml/µg prt) with saturated glucagon peptide, at 10 µM [2]: 0 pmol/ml/µg prt
B2: Seq. ID. No. 216 (peptide)
peptide: VVH[αMeP]QGT[αMePhe(2-F)]TSD[αMeBip(OMe)][hhPhe]-NH2

cAMP production (pmol/ml/µg prt) with saturated glucagon peptide, at 1 nM [2]: 6 pmol/ml/µg prt
cAMP production (pmol/ml/µg prt) with saturated glucagon peptide, at 10 nM [2]: 5 pmol/ml/µg prt
cAMP production (pmol/ml/µg prt) with saturated glucagon peptide, at 100 nM [2]: 2 pmol/ml/µg prt
cAMP production (pmol/ml/µg prt) with saturated glucagon peptide, at 1 µM [2]: 0 pmol/ml/µg prt
cAMP production (pmol/ml/µg prt) with saturated glucagon peptide, at 10 µM [2]: 0 pmol/ml/µg prt
B3: Seq. ID. No. 211 (peptide)
peptide: VVH[Aib]EGTFTSD[αMeBip(OMe)][hhPhe]
modifications: not fully specified (C-terminus); printed as VVH-Aib-EGTFTSD-(αMe-Bip(OMe))-(APPA)

cAMP production (pmol/ml/µg prt) with saturated glucagon peptide, at 1 nM [2]: 19 pmol/ml/µg prt
cAMP production (pmol/ml/µg prt) with saturated glucagon peptide, at 10 nM [2]: 17 pmol/ml/µg prt
cAMP production (pmol/ml/µg prt) with saturated glucagon peptide, at 100 nM [2]: 15 pmol/ml/µg prt
cAMP production (pmol/ml/µg prt) with saturated glucagon peptide, at 1 µM [2]: 14 pmol/ml/µg prt
cAMP production (pmol/ml/µg prt) with saturated glucagon peptide, at 10 µM [2]: 12 pmol/ml/µg prt
B4: Seq. ID. No. 227 (peptide)
peptide: VVH[Aib]EGT[αMePhe(2,6-F2)]TSD[αMeBip(OMe)][hhPhe]-NH2

Reference: patent publication US20120264685A1 (priority 2009, published 2012)
